Measurements: patent US7629135B2, “Toll-like receptor agonists and antagonists and methods of use thereof” (The Board of Trustees of the University of Illinois, priority 2006, dated 2009)

Columns and labels:
[1] = system: TLR2-HeLa cells; assay: MAP kinase phosphorylation and IκBα degradation in TLR2-HeLa cells (Western blotting); assay type: cell-based, human
Protocol: FIG. 8 is a series of protein gels and corresponding Western blotting graphs showing that SAA-induced TLR2-dependent signaling in transfected cells. Serum-starved TLR2-HeLa and mock-transfected HeLa cells were stimulated with SAA (1 μM) or Pam3CSK4 (1 μg/ml) for the indicated time. The phosphorylation level of ERK1/2 (A), p38 (B) and JNK (C) was detected by Western blotting using antibodies recognizing the phosphorylated forms of the MAP kinases (blots). (D) The level of cytoplasmic IκB ? was detected by Western blotting using an anti-IκB ? antibody and the β-actin levels in the corresponding samples were shown as loading controls. […] A representative set of data, from 3 repeating experiments, is presented.

[2] = system: TLR2-HeLa cells; assay: IL-8 secretion in TLR2-HeLa cells (ELISA); assay type: cell-based, human; settings: SAA 1 μM, up to 24 hours
Protocol: FIG. 7 is a series of studies showing SAA-induced response in transfected HeLa cells. […] Pam3CSK4 is a known agonist for TLR2 and was used as a control. […] FIG. 7B is time course of SAA-induced IL-8 secretion in TLR2-HeLa cells compared to mock-transfected HeLa cells. SAA was used at 1 μM and the cells were stimulated for up to 24 hours. The supernatant was collected and secreted IL-8 was measured using ELISA.
In addition to the TLR2-HeLa cell line, a HeLa cell line stably expressing TLR2 and a 5xNF-κB luciferase reporter (pNF-kappaB-Luc, FIG. 13) was generated. This second cell line offers improved consistency between experiments by eliminating the need for transiently transfecting the NF-κB reporter each time an reporter assay is conducted. […] The TNFαc-stimulated reporter activity was used as an independent indicator for comparison. Both cell lines have been and will be used in characterization of SAA-induced functions and in screening assays. […] The TLR2-independent effect in IL-8 secretion was determined in parallel, in mock-transfected HeLa cells lacking the exogenous TLR2 (FIG. 7B).

[3] = system: mouse bone marrow derived macrophages (BMDM); assay: G-CSF secretion in mouse BMDM (ELISA); assay type: cell-based; settings: for secreted mouse G-CSF: mouse BMDM
Protocol: SAA induces G-CSF expression in monocytes and macrophages: To determine whether SAA plays a role in neutrophilia, the ability of SAA to stimulate G-CSF expression was investigated. Human peripheral blood monocytes (PBMC) were incubated with SAA, and the concentration of secreted G-CSF in the culture medium was determined at various time points after stimulation. The concentration of SAA used in this experiment (1 μM) was well within its physiological range (0.08 μM to 80 μM). […] Since subsequent studies used mice for measurement of G-CSF secretion and neutrophilia, SAA-induced G-CSF expression in mouse bone marrow derived macrophages (BMDM) was determined, of which 98% were F4/80^+ CD14^+ based on flow cytometry analysis. […] The basal level of G-CSF remained stable at approximately 42 pg/ml/10^6 cells over the entire course of incubation.
It was next determined whether induction of G-CSF expression was a primary function of SAA or resulted from contaminating LPS in the SAA preparation. The LPS concentration in the recombinant SAA preparation was ≦0.1 ng/μg protein, translating into ≦1.14 ng/ml LPS in a typical experiment with 1 μM SAA. LPS at this or 10-fold higher concentrations was tested for its effect on the expression of G-CSF. […] Given that most proteins are heat labile while LPS is heat resistant, the ability of heat-treated SAA (1 μM) and LPS (1 μg/ml) to stimulate G-CSF secretion in mouse BMDM was examined. After boiling for 25 min, LPS retained its ability to induce G-CSF production by ˜83%. […] In parallel experiments, polymyxin B, an amphiphilic cyclic polycationic peptide that specifically binds to LPS and blocks the cytokine-inducing effect of LPS (Stokes et al., 1989), was used to treat SAA or LPS prior to incubation with BMDM. […] Under the same experimental conditions, polymyxin B reduced LPS-stimulated G-CSF secretion by more than 70%.
It was previously shown that FPRL1 is involved in SAA-induced IL-8 production in human neutrophils (He et al., 2003). It has also been shown that SAA binds to FPRL1 and stimulates the production of matrix metalloproteinase (O'Hara et al., 2004). […] A role of TLR2 in SAA-stimulated G-CSF expression was examined.
Cell preparation and culture: Human peripheral blood monocytes were prepared from fresh, heparinized venous blood by Ficoll-Hypaque density-gradient centrifugation. Blood drawing followed a protocol approved by the Institutional Review Board at the University of Illinois at Chicago. Purified monocytes (>93% CD14^+ by flow cytometry) were kept in nonadherent condition in RPMI 1640 containing 0.5% FBS and maintained at 37° C. Mouse macrophages were differentiated from bone marrow cells. Mouse bone marrow cells were aspirated from the femurs of 8-12-week-old mice and cultured at 37° C. in 5% CO2 in RPMI 1640 medium containing 10% FBS, 15% L-cell conditional medium, 10 mM HEPES, 2 mM L-glutamine, 100 IU/ml penicillin, and 50 μg/ml streptomycin. The medium was changed every three days. Macrophages (about 98% F4/80+ by flow cytometry) were obtained after 7 days of culture. The mouse macrophage cell line RAW264.7 cells were maintained in DMEM medium supplemented with 10% FBS, 10 mM HEPES, 2 mM L-glutamine, 100 IU/ml penicillin, and 50 μg/ml streptomycin. TLR2-HeLa cells were generated by transfection of HeLa cell with the expression construct pUNO-hTLR2 (InvivoGen). Stable transfectants were selected with Blasticidin at 20 μg/ml for 2 weeks. Mock-transfected HeLa cells were generated similarly, with a pUNO empty vector. Cells were maintained in DMEM supplemented with 10% heat-inactivated FBS, 2 mM L-glutamine, 100 IU/ml penicillin, and 50 μg/ml streptomycin. Expression of TLR2 was confirmed using an anti-TLR2 antibody (eBioscience) and FTTC-conjugated anti-mouse antibody, on a FACSCalibur flow cytometer (Becton Dickinson). FIGS. 12 and 13 are plasmid maps of pUNO-hTLR2 and pNF-κB-Luc, respectively. […]

B1: SAA: Recombinant human SAA purchased from PeproTech; major acute-phase protein of 104 amino acids (protein, UniProt P0DJI8 19-122, looked up)
Serum amyloid A-1 protein: RSFFSFLGEAFDGARDMWRAYSDMREANYIGSDKYFHARGNYDAAKRGPGGAWAAEVITDARENIQRFFGHGAEDSLADQAANEWGRSGKDPNHFRPAGLPEKY
IκBα degradation ([1]; TLR2-HeLa cells, SAA 1 μM): IκBα degradation
phosphorylation of MAP kinases ERK1/2, p38 and JNK ([1]; TLR2-HeLa cells, SAA 1 μM): robust phosphorylation
ERK1/2 phosphorylation in mock-transfected cells ([1]; mock-transfected HeLa cells, 10 min, SAA 1 μM, Pam3CSK4 1 μg/ml): induced ERK1/2 phosphorylation
IκBα degradation in mock-transfected cells ([1]; mock-transfected HeLa cells, SAA stimulation): No IκBα degradation
secretion of IL-8 [2]: time-dependent increase in the secretion of IL-8
maximal G-CSF production ([3]; BMDM, SAA, experiments of FIG. 4): 446 pg/ml/10^6 cells
ability to stimulate G-CSF secretion after heat treatment ([3]; SAA 1 μM, boiled 25 min, BMDM, 16 h): could no longer stimulate G-CSF secretion
secreted mouse G-CSF ([3]; SAA 1 μM, after 8 h): 155 pg/ml/10^6 cells
secreted mouse G-CSF ([3]; SAA 1 μM, after 24 h): 965 pg/ml/10^6 cells
ability to induce G-CSF protein secretion in tlr2−/− BMDM ([3]; tlr2−/− vs wild-type BMDM, SAA 1 μM): drastically reduced
